Changes are numbered by the printed parent chain. Read-outs that look alike come from different tables or passages of the source.
Experiments:
human IGF-IR on cells [1] = target: T1, human IGF-IR on cells (human, UniProt P08069 31-1367); test: displacement of 40 pM [125I]-IGF-I from MCF-7 cells, on ice, cell-bound CPM
Description: (§1) Cells were subsequently lysed and radioactivity was quantitated.
(§2) The human breast adenocarcinoma MCF-7 (ATCC, Manassas, Va.) was plated in 24 well plates at a concentration of 50,000 cells per well in RPMI 1640 (Invitrogen, Carlsbad, Calif.) containing 10% fetal bovine serum (Hyclone, Logan, Utah). The following day, cells were washed in binding buffer consisting of RPMI 1640 containing 0.1% BSA (Sigma, St. Louis, Mo.), and then pre-incubated for 30 minutes on ice in 200 μL binding buffer containing IGF-IR competitor. […] The wells were then washed with ice cold PBS containing 0.1% BSA. Cells were lysed with 500 μL buffer consisting of 0.1% SDS+0.5 N NaOH. Radioactivity of the lysates was measured using a Wallac 1470 Gamma Counter (Perkin Elmer, Wellesley, Mass.), and the data were analyzed using SigmaPlot (Systat Software, Point Richmond, Calif.).

human IGF-IR on cells [2] = target: T1, human IGF-IR on cells; test: displacement of [125I]-IGF-I from MCF-7 cells
Description: as §1, §2

human IGF-IR on cells [3] = target: T1, human IGF-IR on cells; test: cell-based or functional assay
[4] = target: T2, recombinant human insulin receptor (human, UniProt P06213-2 28-944, limits assumed); test: SPR (BIAcore), IR amine-coupled to chip
T2 construct: Amine-coupled to a CM5 chip (8300 RU); also called IR
Description: (§3) In brief, 60 ug/mL of IR diluted in acetate 4.5 was coupled/immobilized to a level of 8300 RU and 11.9 ug/mL of VEGF-R2-Fc diluted in acetate 5.0 was immobilized to a level of 9700 RU on flow cells 2 and 3. A blank reference surface was prepared on FC 1. […] Fibronectin-based scaffold proteins were diluted to 10 uM in HBS-EP (10 mM Hepes 150 mM NaCl 3 mM EDTA 0.05% Surfactant P20) and injected at 20 uL/min for 3 minutes over the flow cells at 25 C and dissociation was observed over 10 mins.

recombinant human IGF-IR [5] = target: T3, recombinant human IGF-IR (human, UniProt P08069 31-932); test: competitive ELISA, coated IGF-IR, biotinylated IGF-I as competitor
T3 construct: Bought (R&D Systems); also called insulin-like growth factor-I receptor; IGF-1R
Description: (§4) MaxiSorp™ plates (Nunc International, Rochester, N.Y.) were coated with 30 nM IGF-IR in PBS at 4° C. overnight followed by blocking in OptEIA buffer (BD biosciences, San Diego, Calif.) for 3 hours at room temperature. Purified fibronectin-based scaffold proteins in OptEIA buffer were bound to each well for 1 hour at room temperature at concentrations ranging from 50 pM to 1 μM. […] The excess ligand was removed by washing with PBST and bound ligand was detected with streptavidin-HRP (Pierce, Rockford, Ill.) using TMB detection reagents (BD biosciences) according to the manufacturer's instructions

recombinant human IGF-IR [6] = target: T3, recombinant human IGF-IR; test: direct binding ELISA: plate coated with 10 nM IGF-IR, His-tagged clone detected with His-HRP probe, TMB, OD450
Description: MaxiSorp™ plates (Nunc International, Rochester, N.Y.) were coated with 10 nM IGF-IR in PBS at 4° C. overnight followed by blocking in PBS-casein buffer (Pierce) for 3 hours at room temperature. Purified fibronectin-based scaffold proteins in casein buffer were bound to each well for 1 hour at room temperature at a concentration of 5 nM. The plate was washed with PBST and 100 μl of a 1:4000 dilution of His-HRP probe (Pierce) was added to each well with incubation for 15 min at room temperature. The wells were washed 5 times with PBST and the bound HRP was detected with TMB detection reagents (BD biosciences) according to the manufacturer's instructions.

[7] = target: T2, recombinant human insulin receptor; test: SPR (BIAcore); IR amine-coupled to chip, clone at 10 µM, signal as % of insulin signal
Description: (§5) One liter E. coli growths of selected optimized clones were prepared and the proteins were purified.
as §3

IGF-IR-Fc [8] = target: T4, IGF-IR-Fc (human, UniProt P08069 31-932); test: SPR (BIAcore); IGF-IR-Fc captured on Protein A, clone in solution
T4 construct: range 1-932; Made in house by transient transfection, captured on Protein A on CM5 chips for kinetic analysis; also called human IGF-IR-Fc fusion protein; recombinant, immobilized IGF-IR (BIAcore); not shown: hinge and constant regions of human IgG1
Description: One liter E. coli growths of selected optimized clones were prepared and the proteins were purified. Surface plasmon resonance (BIAcore) analysis was performed using recombinant, immobilized IGF-IR and solution-phase clones in order to determine binding kinetics and binding affinities.
(§6) The binding kinetics of fibronectin-based scaffold proteins binding proteins to the target was measured using BIAcore 2000 or 3000 biosensors (Pharmacia Biosensor). A capture assay was developed utilizing an IGF-IR-Fc fusion. A similar reagent had been described by Forbes et al. (Forbes et al. 2002, European J. Biochemistry, 269, 961-968). The extracellular domain of human IGF-IR (aa 1-932) was cloned into a mammalian expression vector containing the hinge and constant regions of human IgG1. Transient transfection of the plasmid produced a fusion protein, IGF-IR-Fc which was subsequently purified by Protein A chromatography and captured on Protein A immobilized on Biasensor CM5 chips by amine coupling. The kinetic analysis involved the capture of IGF-IR-Fc on Protein A followed by injection of the fibronectin-based scaffold protein in solution and regeneration of the Protein A surface by glycine pH 2.0. Sensorgrams were obtained at each concentration and were evaluated using a program Biaevaluation, BIA Evaluation 2.0 (BIAcore), to determine the rate constants kₐ (kₒₙ) and kd (koff) The dissociation constant, KD was calculated from the ratio of rate constants koff/kₒₙ. Typically, a concentration series (2 uM to 0 uM) of purified fibronectin-based scaffold protein was evaluated for binding to protein A captured human IGF-IR-Fc fusion protein.

recombinant human IGF-IR [9] = target: T3, recombinant human IGF-IR; test: competitive ELISA: plate coated with 30 nM IGF-IR, clone bound first, then 10 nM biotinylated IGF-I as the blocked ligand, streptavidin-HRP/TMB, OD450
Description: as §4

[10] = target: T2, recombinant human insulin receptor; test: SPR (BIAcore), IR amine-coupled to chip; remark: listed apart in the source
Description: as §5, §3

IGF-IR-Fc [11] = target: T4, IGF-IR-Fc; test: SPR (BIAcore); IGF-IR-Fc captured on Protein A, analyte in solution
Description: as §6

IGF-IR-Fc [12] = target: T4, IGF-IR-Fc; test: SPR (BIAcore); IGF-IR-Fc captured on Protein A, clone in solution; remark: listed apart in the source
Description: BIAcore analysis was performed using recombinant, immobilized IGF-IR and solution-phase clones in order to determine binding kinetics and binding affinities.
as §6

IGF-IR-Fc [13] = target: T4, IGF-IR-Fc; test: SPR (BIAcore); immobilized IGF-IR, analyte in solution
Description: as §6

IGF-IR-Fc [14] = target: T4, IGF-IR-Fc; test: SPR (BIAcore); IGF-IR-Fc captured on Protein A, clone in solution; remark: listed apart in the source
Description: as §6

Work on anti-IGF-IR monoclonal antibody MAB391 yielded an IC50 (read off the curve) (human IGF-IR on cells [1]) of 2000 pM, an IC50 (human IGF-IR on cells [2]) of 5000 pM and an IC50, serum mediated proliferation of NCI-H929 cells (human IGF-IR on cells [3]) of 100 pM.

B1: 338A06 (designed binder)
chain: VSDVPRDLEVVAATPTSLLISWSARLKVARYYRITYGETGGNSPVQEFTVPKNVYTATISGLKPGVDYTITVYAVTKMRDYRPISINYRTHHHHHH
notes: Optimized derivative of 218C04; also called clone 338A06; parent clone 338A06
With B1 the binding result [4] was “no binding (tested: 10 µM)”, the “IC50 (read off the curve)” value (human IGF-IR on cells [1]) was roughly 1000 pM and the IC50 (human IGF-IR on cells [2]) was 1000 to 2000 pM. For the same molecule, the IC50 (recombinant human IGF-IR [5]) was no more than 1000 pM, the “EC50 (read off the curve)” value (recombinant human IGF-IR [6]) was roughly 2000 pM and the “% IR Binding at 10 µM” value [7] was 2%. For the same molecule, the Kd (IGF-IR-Fc [8]) was 69 pM, the koff (IGF-IR-Fc [8]) was 0.00043 s⁻¹ and the kon (IGF-IR-Fc [8]) was roughly 6.2e+06 M⁻¹ s⁻¹. The “IC50 (read off the curve)” value (recombinant human IGF-IR [9]) was roughly 700 pM and the “IC50, IGF-I-dependent proliferation of BxPC-3 cells (3H-thymidine)” value (human IGF-IR on cells [3]) was 10000 to 20000 pM.

B2: 353H09 (designed binder)
chain: B1 chain with A24D, R25K, A29Q, N53H, V54D, Y55R
notes: Optimized derivative of 218C04
B2 was tested, and the Kd (IGF-IR-Fc [8]) was 57 pM, the koff (IGF-IR-Fc [8]) was 0.00022 s⁻¹ and the kon (IGF-IR-Fc [8]) was 3.8e+06 M⁻¹ s⁻¹. For the same molecule, the “IC50 (read off the curve)” value (recombinant human IGF-IR [9]) was roughly 1000 pM and the binding result [10] was “no binding (tested: 10 µM)”.

B3: 385A08 (designed binder)
chain: B1 chain with K77R, M78F, R82Q
notes: FG loop optimized derivative of 338A06; also called clone 385A08; unmodified 385A08
B3 gave a Kd (IGF-IR-Fc [11]) of 23 pM, a koff (IGF-IR-Fc [11]) of 0.00016 s⁻¹ and a kon (IGF-IR-Fc [11]) of 6.9e+06 M⁻¹ s⁻¹. The binding result [4] was “no binding (tested: 10 µM)”, the Kd (IGF-IR-Fc [12]) was 34 pM and the koff (IGF-IR-Fc [12]) was 0.00019 s⁻¹. The kon (IGF-IR-Fc [12]) was 5.7e+06 M⁻¹ s⁻¹ and the “IC50, serum mediated proliferation of NCI-H929 cells” value (“IC50, serum mediated proliferation” below) (human IGF-IR on cells [3]) was roughly 100 pM.

B4: 387B01 (designed binder)
chain: B1 chain with K77S, M78L, R82G
notes: FG loop optimized derivative of 338A06
With B4 the binding result [4] was “no binding (tested: 10 µM)”, the “EC50 (read off the curve)” value (recombinant human IGF-IR [6]) was roughly 1000 pM and the Kd (IGF-IR-Fc [12]) was 67 pM. The koff (IGF-IR-Fc [12]) was 0.00044 s⁻¹ and the kon (IGF-IR-Fc [12]) was 6.5e+06 M⁻¹ s⁻¹.

B5: 385A08-PEG40 (designed binder)
chain: GVSDVPRDLEVVAATPTSLLISWSARLKVARYYRITYGETGGNSPVQEFTVPKNVYTATISGLKPGVDYTITVYAVTRFRDYQPISINYRTEIDKPCQ
modifications: Cys97 coupled by maleimide chemistry to a mono-functional branched 40 kDa PEG
Molecule B5 has a Kd (IGF-IR-Fc [11]) of 355 pM, a koff (IGF-IR-Fc [11]) of 0.00021 s⁻¹ and a kon (IGF-IR-Fc [11]) of 600000 M⁻¹ s⁻¹. The “IC50, serum mediated proliferation” value (human IGF-IR on cells [3]) was roughly 1000 pM and the “fold change of on-rate (ka) relative to unmodified 385A08” value (IGF-IR-Fc [13]) was roughly 10 fold slower.

B6: 385A08-PEG20-385A08 (designed binder)
chain: B5 chain
modifications: Cys97 coupled by maleimide chemistry to a linear 20 kDa bifunctional PEG that links the two chains
notes: Two copies of 385A08 with the C-terminal Cys extension, joined through PEG; also called PEG20-385A08-PEG20 variant
B6 showed a Kd (IGF-IR-Fc [11]) of 6 pM, a koff (IGF-IR-Fc [11]) of 9e-05 s⁻¹ and a kon (IGF-IR-Fc [11]) of 1.5e+07 M⁻¹ s⁻¹. For the same molecule, the “IC50, serum mediated proliferation” value (human IGF-IR on cells [3]) was less than 0.1 pM and the “fold change of on-rate (ka) relative to unmodified 385A08” value (IGF-IR-Fc [13]) was roughly 2 fold faster.

B7: 218C04 (designed binder)
chain: VSDVPRDLEVVAATPTSLLISWSPYLRVARYYRITYGETGGNSPVQEFTVPSSARTATISGLKPGVDYTITVYAVTPSNIIGRHYGPISINYRTHHHHHH
notes: also called clone 218C04; pre-optimized clone
For B7, the Kd (IGF-IR-Fc [14]) was 1800 pM.

B8: 353F10 (designed binder)
chain: VSDVPRDLEVVAATPTSLLISWPTHYKVARYYRITYGETGGNSPVQEFTVPKHTYTATISGLKPGVDYTITVYAVTTTKGLRHYGPISINYRTHHHHHH
notes: as for B2
B8 was tested, and the “% IR Binding at 10 µM” value [7] was 1%, the Kd (IGF-IR-Fc [8]) was 56 pM and the koff (IGF-IR-Fc [8]) was 0.00021 s⁻¹. The kon (IGF-IR-Fc [8]) was 3.7e+06 M⁻¹ s⁻¹ and the “IC50 (read off the curve)” value (recombinant human IGF-IR [9]) was roughly 1000 pM.

From patent US20130310317A1 (Bristol-Myers Squibb, published 2013)
